In experiment [1] the target is T1, Mouse/Human Ang-2 StuI chimeric molecule (mouse; human, UniProt O35608 19-496).
T1 construct: also called M/H Stul 310-496
T1 chain: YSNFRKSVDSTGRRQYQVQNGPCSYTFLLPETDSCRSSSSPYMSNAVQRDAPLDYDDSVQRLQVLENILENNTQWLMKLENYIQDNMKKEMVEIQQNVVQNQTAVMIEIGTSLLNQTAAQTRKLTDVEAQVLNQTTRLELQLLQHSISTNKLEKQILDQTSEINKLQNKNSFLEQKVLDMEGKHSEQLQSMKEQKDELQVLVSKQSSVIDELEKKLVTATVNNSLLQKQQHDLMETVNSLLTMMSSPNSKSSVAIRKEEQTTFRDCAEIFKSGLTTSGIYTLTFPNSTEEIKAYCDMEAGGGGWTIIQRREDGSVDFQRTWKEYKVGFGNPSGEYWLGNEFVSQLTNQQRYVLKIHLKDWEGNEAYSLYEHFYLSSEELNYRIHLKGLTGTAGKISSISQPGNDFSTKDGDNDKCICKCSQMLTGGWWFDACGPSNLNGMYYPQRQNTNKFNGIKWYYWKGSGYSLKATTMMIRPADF
Nature of the experiment: ELISA. Background: In an ELISA, binding on a coated surface is turned into a signal by an enzyme label.

The target of experiment [2] is T2, Mouse/Human chimeric Ang-2 with the human StuI-TfiI fragment (mouse/human chimera, UniProt O35608 19-496).
T2 construct: also called Stu-Tfil 310-400
T2 chain: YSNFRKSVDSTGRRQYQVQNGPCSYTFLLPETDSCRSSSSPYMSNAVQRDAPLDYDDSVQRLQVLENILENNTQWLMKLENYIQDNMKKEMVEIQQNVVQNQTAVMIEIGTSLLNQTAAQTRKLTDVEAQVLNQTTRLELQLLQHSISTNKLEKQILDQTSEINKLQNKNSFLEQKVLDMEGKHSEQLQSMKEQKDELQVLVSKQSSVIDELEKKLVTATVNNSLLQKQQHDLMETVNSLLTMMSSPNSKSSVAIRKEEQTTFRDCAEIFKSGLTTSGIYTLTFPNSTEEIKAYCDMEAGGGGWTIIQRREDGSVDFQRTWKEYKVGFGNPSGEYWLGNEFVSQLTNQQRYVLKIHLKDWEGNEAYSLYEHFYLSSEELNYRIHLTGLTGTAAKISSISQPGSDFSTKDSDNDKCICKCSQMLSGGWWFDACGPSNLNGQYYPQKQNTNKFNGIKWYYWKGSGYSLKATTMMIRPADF
Nature of the experiment: ELISA.

Experiment [3] has as its target T3, human Ang-2 V345M (human, UniProt O15123 19-496).
T3 sequence: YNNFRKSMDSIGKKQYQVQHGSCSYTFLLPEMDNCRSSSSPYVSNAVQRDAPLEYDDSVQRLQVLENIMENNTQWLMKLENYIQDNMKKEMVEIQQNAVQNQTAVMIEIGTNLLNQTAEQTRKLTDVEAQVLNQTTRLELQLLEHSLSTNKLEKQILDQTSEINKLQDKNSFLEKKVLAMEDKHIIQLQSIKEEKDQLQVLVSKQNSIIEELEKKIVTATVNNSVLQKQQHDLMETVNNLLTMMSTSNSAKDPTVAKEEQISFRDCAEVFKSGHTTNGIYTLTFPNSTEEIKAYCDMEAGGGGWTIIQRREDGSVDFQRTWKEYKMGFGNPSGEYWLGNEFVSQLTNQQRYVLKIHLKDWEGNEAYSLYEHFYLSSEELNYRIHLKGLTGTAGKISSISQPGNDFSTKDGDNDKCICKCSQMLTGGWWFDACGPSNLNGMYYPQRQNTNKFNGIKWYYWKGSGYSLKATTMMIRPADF
Nature of the experiment: ELISA.

Experiment [4] deals with T4, human Angiopoietin-2 (human, UniProt O15123 19-496).
T4 construct: Mostly bought recombinant protein (R&D Systems 623-AM/CF, 623-AN; biotinylated BT623) or supernatant of transfected 293F cells; also called Ang-2; rhAng-2
T4 sequence: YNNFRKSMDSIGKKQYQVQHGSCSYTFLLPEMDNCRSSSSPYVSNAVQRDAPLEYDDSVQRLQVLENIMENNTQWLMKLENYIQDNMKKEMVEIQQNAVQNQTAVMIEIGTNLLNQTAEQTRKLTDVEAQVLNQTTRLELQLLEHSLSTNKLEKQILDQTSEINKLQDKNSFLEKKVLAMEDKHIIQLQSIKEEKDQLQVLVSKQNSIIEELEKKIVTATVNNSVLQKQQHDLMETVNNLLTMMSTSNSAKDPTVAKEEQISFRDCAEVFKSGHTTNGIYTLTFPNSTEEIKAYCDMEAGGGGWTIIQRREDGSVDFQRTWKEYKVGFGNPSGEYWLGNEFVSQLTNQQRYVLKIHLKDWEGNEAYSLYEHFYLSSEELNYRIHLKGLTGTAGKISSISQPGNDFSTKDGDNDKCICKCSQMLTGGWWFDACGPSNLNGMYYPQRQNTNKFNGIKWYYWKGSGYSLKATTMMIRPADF
Nature of the experiment: Biacore, mAb captured. The procedure, abridged: (§1)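 Purified mAbs (~8 μg/ml in HBS-P with 100 μg/ml BSA and 10 mg/mL carboxymethyldextran) captured on a goat anti-human antibody CM5 surface by SPR, 42 s contact then 5 min stabilisation. Binding kinetics from global fit to a 1:1 interaction model.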
(Surface plasmon resonance follows binding to a sensor surface in real time, without labels.)

The target of experiment [5] is T4, human Angiopoietin-2. Put plainly: Biacore; kd held constant (*). The essentials: as §1
The target in experiment [6] is T5, mouse Angiopoietin-2 (mouse, UniProt O35608 19-496).
T5 construct: Used as conditioned medium of transfectants; also called mAng-2; mouse Ang-2
T5 sequence: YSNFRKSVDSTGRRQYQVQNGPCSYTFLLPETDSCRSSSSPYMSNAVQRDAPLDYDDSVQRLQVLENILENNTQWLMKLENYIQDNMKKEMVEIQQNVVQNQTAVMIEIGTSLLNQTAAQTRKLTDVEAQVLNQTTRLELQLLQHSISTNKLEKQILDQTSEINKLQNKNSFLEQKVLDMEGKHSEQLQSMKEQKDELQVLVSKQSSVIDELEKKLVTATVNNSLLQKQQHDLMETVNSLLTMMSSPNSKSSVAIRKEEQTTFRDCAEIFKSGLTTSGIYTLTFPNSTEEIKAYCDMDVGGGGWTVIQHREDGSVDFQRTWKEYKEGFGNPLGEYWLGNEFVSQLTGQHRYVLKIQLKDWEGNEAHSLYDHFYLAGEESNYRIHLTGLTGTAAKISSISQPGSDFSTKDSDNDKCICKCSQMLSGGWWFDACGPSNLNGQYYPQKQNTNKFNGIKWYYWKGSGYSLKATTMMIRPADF
Put plainly: ELISA, recombinant mouse Ang-2.

Broadly, the Kd is the concentration at which binding is half-saturated. Low values mean tighter binding, high ones weaker binding. Usually kon stands for the second-order rate constant of association. High values mean faster complex formation, low ones slower complex formation. By koff is commonly meant the rate constant with which the complex falls apart. Lower therefore signals slow dissociation.

B1: mAb 5.40.2 (antibody, V domains shown)
VH: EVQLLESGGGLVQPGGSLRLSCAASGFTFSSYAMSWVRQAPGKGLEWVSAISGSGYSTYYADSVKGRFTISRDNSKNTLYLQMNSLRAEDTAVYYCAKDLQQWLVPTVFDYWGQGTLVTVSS
VL: EIVMTQSPATLSVSPGERATLSCRASQSVSSNLVWYQQKPGQAPRLLIYDSSTRATGIPVRFSGSGSGTEFTLTISSLQSEDFAVYYCQQYNHWWTFGQGTKVEIKR
notes: Human hybridoma IgG (XenoMouse); also called x5.40
With B1, the figures for the “% of binding to human Ang-2” value in experiment [1], in experiment [2] and in experiment [3] were 100%, 65% and 100%, respectively. This molecule had a Kd in experiment [4] of at most 129 pM. In experiment [4], this molecule displayed a kon of 78000 M⁻¹ s⁻¹. In experiment [5], the koff was at most 1e-05 s⁻¹. Besides, the binding result in experiment [6] is recorded as “no binding”.

These data come from patent US20080267971A1 (published 2008).
